Reference: patent publication US20070065439A1 (Amgen, published 2007)

How the values were obtained:
[1] = target: T1, Recombinant human IL-1beta (rhIL-1b) (human, UniProt P01584 117-269); assay: cell-based or functional assay
[2] = target: T1, Recombinant human IL-1beta (rhIL-1b); assay: Biacore low-res, mAb captured, 25C; IL-1β in solution (118 nM) over captured mAb; low-resolution Biacore, 25 C
[3] = target: T1, Recombinant human IL-1beta (rhIL-1b); assay: cell-based or functional assay; remark: listed apart in the source
[4] = target: T1, Recombinant human IL-1beta (rhIL-1b); assay: Biacore, Medium Resolution; IL-1β in solution; medium-resolution Biacore
[5] = target: T1, Recombinant human IL-1beta (rhIL-1b); assay: Biacore, Low Resolution screen
[6] = target: T2, IL-1β R4A mutant (human, UniProt P01584 117-269); assay: binding to site-directed IL-1β mutant; X = abrogation of binding
T2 construct: site-directed mutant

[7] = target: T3, IL-1β R11A mutant (human, UniProt P01584 117-269); assay: as above
T3 construct: site-directed mutant

[8] = target: T1, Recombinant human IL-1beta (rhIL-1b); assay: Biacore high-res, mAb amine-coupled, 23C
[9] = target: T1, Recombinant human IL-1beta (rhIL-1b); assay: cell-based or functional assay; remark: listed apart in the source

Binder	% IL-6 production, supernatant 1:5 dilut. [1] [%]	% IL-6 production, supernatant 1:10 dilut. [1] [%]	% IL-6 production, supernatant 1:20 dilut. [1] [%]	Kd [2] [pM]	koff [2] [s⁻¹]	kon [2] [M⁻¹ s⁻¹]	EC50, inhibition of IL-1β-induced IL-6 production in MRC-5 cells [3] [pM]	Kd [4] [pM]	koff [4] [s⁻¹]	kon [4] [M⁻¹ s⁻¹]	Kd [5] [pM]	binding result [6]	binding result [7]	Kd [8] [pM]	koff [8] [s⁻¹]	kon [8] [M⁻¹ s⁻¹]	EC50, inhibition of IL-1β-induced IL-8 production in human whole blood [9] [pM]
4.20.1 (antibody, human IgG4, V domains shown, kappa; also called 4.20.2) VH: QVQLVESGGGVVQPGRSLRLSCAASGFTFSNYGMNWVRQAPGKGLEWVAVIWYDGNNKSEADSVKGRFTISRDNSKNTLYLQMNSLRAEDTAVYYCARDSRSGPFDYWGQGTLVTVSS VL: EIVLTQSPDFQSVTPKEKVTITCRASQSIGSSLHWYQQKPDQSPKLLIKFASQSFSGVPSRISGSGSGTDFTLTINSLEAEDAATYYCHQSSSLPFTFGPGTKVDIK	–	–	–	5000	–	–	–	–	–	–	–	no binding	no binding	–	–	–	–
9.31.1 (antibody, human IgG4, V domains shown, lambda; also called 9.31.3) VH: QVQLVESGGGLVKPGGSLRLSCAASGFTFSDYYMSWIRQAPGKGLEWVSYIRSSGSTIYYADSVKGRFTISRDNAKNSLYLQMNSLRAEDTAVYYCARTPYSGRYHWYFDLWGRGTLVTVS VL: SYELTQPPSVSVSPGQTARITCSGDALPIKYAYWYQHKSGQAPVLVIYEDSKRPSGIPERFSGSSSGTMATLTISGAQVEDEADYYCYSTDSSGNHRVFGGGTKLTVL	6	23	13	5760	0.0038	660000	14300	–	–	–	–	–	no binding	–	–	–	–
8.50.1 (antibody, human IgG4, V domains shown, lambda) VH: QVQLQESGPGLVKPSETLSLTCTVSGGSISSDYWSWIRQPAGKGLEWIGRFYNSGRTNYRPSLKSRITMSVDTSKNQFSLKLSSVTAADTAVYYCARDMYSGRGNWYFDLWGRGTLVTVS VL: SYELTQPPSVSVSPGQTARITCSGDALPKKYAYWYQQKSGQAPVLVIYEDSKRPSGIPERFSGSSSGTMATLTISGAQVEDEADYYCYSTDSSDNHRVFGGGTKLTVL	–	–	–	9000	0.027	3e+06	–	–	–	–	–	–	no binding	–	–	–	–
9.26.1 (antibody, human IgG4, V domains shown, lambda; also called 9.26.3) VH: QVQLVESGGGVVQPGRSLRLSCAASGFTFNNYGMHWVRQAPGKGLECVAVIWYDGGNKYYADSVKGRFAISRDNSKNTLYLQMNSLRAEDTAVYYCTAVTKLNYYYGMDVWGQGTTVTVS VL: QSALTQPASVSGSPGQSITISCTGTSSDVGGYNYVSWYQQHPGKAPKLMIYEVSNRPSGVSNRFSGSKSGNTASLTISGLQAEDEADYYCSSYTSSSILVFGGGTKLTVL	12	27	27	854	0.00035	410000	5680	–	–	–	–	–	–	–	–	–	–
6.33.1 (antibody, human IgG4, V domains shown, lambda; also called mAb 6.33.1) VH: QVQLVESGGGVVQPGRSLRLSCAASGFTFSVYGMHWVRQAPGKGLEWVAVIWYDGSNKYYADSVKGRFTISRDNSKNTLYLQMNSLRAEDTAVYYCAREKSSGWFFDYWGQGTLVTVSS VL: QSALTQPASVSGSPGQSITISCTGTSSDVGSYNLVSWYQQHPGKAPKLMIYEVSKRPSGISNRFSGSKSGNTASLTISGLQAEDEADYYCCSYAGNSIWVFGGGTKLTVL	13	22	22	320	0.00016	500000	1060	140	0.00014	970000	320	–	no binding	236	0.000259	1.1e+06	–

The remaining binders from weak to strong by Kd [2], led by results:

% IL-6 production, supernatant 1:5 dilut. [1] [%]	% IL-6 production, supernatant 1:10 dilut. [1] [%]	% IL-6 production, supernatant 1:20 dilut. [1] [%]	Kd [2] [pM]	koff [2] [s⁻¹]	kon [2] [M⁻¹ s⁻¹]	EC50, inhibition of IL-1β-induced IL-6 production in MRC-5 cells [3] [pM]	Kd [4] [pM]	koff [4] [s⁻¹]	kon [4] [M⁻¹ s⁻¹]	Kd [5] [pM]	binding result [6]	binding result [7]	Kd [8] [pM]	koff [8] [s⁻¹]	kon [8] [M⁻¹ s⁻¹]	EC50, inhibition of IL-1β-induced IL-8 production in human whole blood [9] [pM]	Binder
6	8	23	1230	–	–	1590	820	–	–	1230	–	–	–	–	–	–	8.6.1 (antibody, human IgG4, V domains shown, lambda; also called 8.6.3) VH: QVQLQESGPGLVKPSETLSLTCTVSGGSVSSGGYYWSWVRQPPGKGLEWIGCIYFSESTNYNPSLKSRVTISVDTSKNQFSLKLSSVTAADTAVYYCARDPMHYYGMDVWGQGTTVTVSS VL: SFELTQPPSVSVSPGQTASITCSGDKLGDKFACWYQQKPGQSPVLVIYQDTKRPSGIPERISGSNSGNTATLTISGTQAMDEADYYCQAWDSSTYVVFGGGTKLTVL
4	8	16	747	0.00074	990000	5470	290	0.00035	1.2e+06	747	–	no binding	–	–	–	–	9.2.1 (antibody, human IgG4, V domains shown, lambda) VH: QVQLVESGGGVVQPGRSLRLSCAASGFTFNNYGMHWVRQAPGKGLECVAVIWYDGGNKYYADSVKGRFAISRDNSKNTLYLQMNSLRAEDTAVYYCTAVTTLYYYYGMDVWGQGTTVTVS VL: QSALTQPASVSGSPGQSITISCTGTSSDVGGYNYVSWYQQHPGKAPKLMIYEVSNRPSGVSNRFSGSKSGNTASLTISGLQAEDEADYYCSSYTSSSILVFGGGTKLTVL
6	8	18	712	0.00042	590000	3150	580	0.00058	1e+06	712	no binding	no binding	–	–	–	–	5.36.1 (antibody, human IgG4, V domains shown, kappa) VH: QVQLQQSGPGLVKPSQTLSLTCAISGDSVSSNSAAWNWIRQSPSRGLEWLGRTYYRSKWYNDYAVSVKSRITINPDTSKNQFSLQLNSVTPEDTAVYYCAREEQQLVRYYYYYGMDVWGQGTTVTVS VL: DIVMTQTPLSLSVTPGQPASISCKSSQSLLHSDGRTYLYWYLQRPGQPPQLLIYEASYRFSGVPDRFSGSGSGTDFTLKISRVEAEDVGIYYCMQSIQLPRTFGQGTRLEIK
2	3	9	629	0.00022	350000	536	450	0.00022	490000	629	no binding	no binding	388	0.000188	485000	2290	8.18.1 (antibody, human IgG4, V domains shown, lambda; also called mAb 8.18.1) VH: QVQLQESGPGLVKPSETLSLTCTVSGGSVSSGGYYWSWIRQPPGKGLEWIGYFYYSGSPNYNPSLKRRIAISVDTSKNQFSLRLSSVTAADTAVYYCARDPMHYYGMDVWGQGTTVTVSS VL: SSELTQPPSVSVFPGQTANITCSGDKLGDKFACWYQQKPGQSPVLVIYRDNKRPSGIPERFSGSNSGNTATLTISGTQAMDEADYYCQAWDSSTYVVFGGGTKLTVL
9	8	22	478	0.00044	920000	591	200	0.00038	1.9e+06	478	–	no binding	–	–	–	–	6.26.1 (antibody, human IgG4, V domains shown, lambda; also called 6.26.4) VH: QLQLQESGPGLVKPSETLSLTCTVSGGSISRSSYYWGWIRQPPGKGLEWMGNIYYSGSTHYNPSLKSRVTISVDTSKNQFSLKLSSVTAADTAVFYCAKGREYISSSGYGMDVWGQGTTVTVS VL: SYELTQPPSVSVSPGQTASITCSGDKLGNKYVCWYQQKPGQSPVLVIFQDSRRPSGIPERFSGSNSGNTATLTISGTQAMDEADYYCQAWDTSTVIFGGGTKLTVL
4	3	10	290	0.0002	690000	2670	140	0.00023	1.6e+06	290	–	no binding	–	–	–	–	9.11.1 (antibody, human IgG4, V domains shown, lambda; also called 9.11.3) VH: QVQLVESGGGVVQPGRSLRLSCAASGFTFSVYGMHWVRQAPGKGLEWVAVIWYDGNNKYYVDSVKGRFTISRDNSKNTLYLQLNSLRAEDTAVYYCARERSSSWYFDYWGQGTLVTVSS VL: QSALTQPASVSGSSGQSITISCTGTSSDVGSYNLVSWYQQHPGKAPKLMIYEVSKRPSGVSNRFSGSKSGNTASLTISGLQAEDEADYYCCSYAGNSNWVFGGGTKLTVL
5	10	15	268	0.00015	560000	2910	63	4e-05	640000	–	–	–	262	0.00019	727000	–	9.19.1 (antibody, human IgG4, V domains shown, lambda; also called mAb 9.19.1) VH: QVQLVESGGGVVQPGRSLRLSCAASGFTFNNYGMHWVRQAPGKGLECVAVIWYDGGNKYYADSVKGRFAISRDNSKNTLYLQMNSLRAEDTAVYYCTAVTKLNYYYGMDVWGQRTTVTVS VL: QSALTQPASVSGSPGQSITISCTGTSSDVGGYNYVSWYQQHPGKAPKFMIYEVSNRPSGVSNRFSGSKSGNTASLTISGLQAEDEADYYCSSYTSSSILVFGGGTKLTVL
